Data on one molecule can be found in paper PMC9496920, “Anti-PTK7 Monoclonal Antibodies Inhibit Angiogenesis by Suppressing PTK7 Function” (Cancers, 2022).

The experiment concerns the target KDR-HA (human KDR with a C-terminal HA tag) (human, UniProt P35968 20-1356). The experiment is described as follows: cell-based or functional assay.

KDR-HA (human KDR with a C-terminal HA tag), sequence (P35968 20-1356): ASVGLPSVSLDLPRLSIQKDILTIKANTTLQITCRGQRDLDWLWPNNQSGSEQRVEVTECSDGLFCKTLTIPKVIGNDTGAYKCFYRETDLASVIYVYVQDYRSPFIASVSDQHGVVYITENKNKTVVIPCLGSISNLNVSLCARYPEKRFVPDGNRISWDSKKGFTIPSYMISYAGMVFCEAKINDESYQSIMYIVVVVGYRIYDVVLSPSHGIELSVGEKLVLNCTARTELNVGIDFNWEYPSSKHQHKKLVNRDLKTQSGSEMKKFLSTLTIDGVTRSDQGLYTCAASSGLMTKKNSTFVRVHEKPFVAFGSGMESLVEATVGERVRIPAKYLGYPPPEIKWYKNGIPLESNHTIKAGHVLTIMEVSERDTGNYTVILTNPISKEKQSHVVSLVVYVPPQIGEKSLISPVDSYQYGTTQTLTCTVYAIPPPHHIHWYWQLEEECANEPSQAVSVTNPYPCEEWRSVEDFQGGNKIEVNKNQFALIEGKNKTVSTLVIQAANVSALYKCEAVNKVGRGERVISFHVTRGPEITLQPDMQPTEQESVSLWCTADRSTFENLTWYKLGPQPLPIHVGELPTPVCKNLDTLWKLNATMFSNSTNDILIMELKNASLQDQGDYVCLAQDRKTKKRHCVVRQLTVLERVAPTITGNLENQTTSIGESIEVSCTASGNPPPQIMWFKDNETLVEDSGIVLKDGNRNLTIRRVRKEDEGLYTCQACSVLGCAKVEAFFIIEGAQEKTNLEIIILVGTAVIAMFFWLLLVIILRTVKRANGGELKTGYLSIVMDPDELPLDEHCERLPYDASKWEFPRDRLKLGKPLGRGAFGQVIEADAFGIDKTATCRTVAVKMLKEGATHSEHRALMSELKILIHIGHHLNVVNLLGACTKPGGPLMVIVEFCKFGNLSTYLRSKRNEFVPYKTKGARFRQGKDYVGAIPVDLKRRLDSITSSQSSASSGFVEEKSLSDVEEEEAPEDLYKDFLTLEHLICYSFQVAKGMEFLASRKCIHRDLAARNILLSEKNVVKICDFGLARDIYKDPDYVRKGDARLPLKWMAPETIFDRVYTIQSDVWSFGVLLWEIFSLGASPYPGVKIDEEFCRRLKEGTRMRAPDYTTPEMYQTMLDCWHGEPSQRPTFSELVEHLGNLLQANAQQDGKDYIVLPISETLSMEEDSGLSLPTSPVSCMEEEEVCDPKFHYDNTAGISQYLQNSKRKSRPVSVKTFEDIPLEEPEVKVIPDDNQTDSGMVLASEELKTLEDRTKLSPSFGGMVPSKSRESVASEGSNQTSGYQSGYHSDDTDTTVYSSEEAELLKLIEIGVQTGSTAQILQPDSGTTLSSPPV

B1: PTK7-FLAG (human PTK7 with a C-terminal FLAG tag) (receptor, UniProt Q13308 31-1070, looked up)
chain: AIVFIKQPSSQDALQGRRALLRCEVEAPGPVHVYWLLDGAPVQDTERRFAQGSSLSFAAVDRLQDSGTFQCVARDDVTGEEARSANASFNIKWIEAGPVVLKHPASEAEIQPQTQVTLRCHIDGHPRPTYQWFRDGTPLSDGQSNHTVSSKERNLTLRPAGPEHSGLYSCCAHSAFGQACSSQNFTLSIADESFARVVLAPQDVVVARYEEAMFHCQFSAQPPPSLQWLFEDETPITNRSRPPHLRRATVFANGSLLLTQVRPRNAGIYRCIGQGQRGPPIILEATLHLAEIEDMPLFEPRVFTAGSEERVTCLPPKGLPEPSVWWEHAGVRLPTHGRVYQKGHELVLANIAESDAGVYTCHAANLAGQRRQDVNITVATVPSWLKKPQDSQLEEGKPGYLDCLTQATPKPTVVWYRNQMLISEDSRFEVFKNGTLRINSVEVYDGTWYRCMSSTPAGSIEAQARVQVLEKLKFTPPPQPQQCMEFDKEATVPCSATGREKPTIKWERADGSSLPEWVTDNAGTLHFARVTRDDAGNYTCIASNGPQGQIRAHVQLTVAVFITFKVEPERTTVYQGHTALLQCEAQGDPKPLIQWKGKDRILDPTKLGPRMHIFQNGSLVIHDVAPEDSGRYTCIAGNSCNIKHTEAPLYVVDKPVPEESEGPGSPPPYKMIQTIGLSVGAAVAYIIAVLGLMFYCKKRCKAKRLQKQPEGEEPEMECLNGGPLQNGQPSAEIQEEVALTSLGSGPAATNKRHSTSDKMHFPRSSLQPITTLGKSEFGEVFLAKAQGLEEGVAETLVLVKSLQSKDEQQQLDFRRELEMFGKLNHANVVRLLGLCREAEPHYMVLEYVDLGDLKQFLRISKSKDEKLKSQPLSTKQKVALCTQVALGMEHLSNNRFVHKDLAARNCLVSAQRQVKVSALGLSKDVYNSEYYHFRQAWVPLRWMSPEAILEGDFSTKSDVWAFGVLMWEVFTHGEMPHGGQADDEVLADLQAGKARLPQPEGCPSKLYRLMQRCWALSPKDRPSFSEIASALGDSTVDSKP
With B1, the “VEGF-induced phosphorylation of KDR (Tyr1175) in HUVECs pre-treated with mAb-32 (10 ug/mL), Western blot, relative to VEGF alone” value is 53.2 % of VEGF-alone control and the “VEGF-induced phosphorylation of KDR (Tyr1175) in HUVECs pre-treated with mAb-43 (10 ug/mL), Western blot, relative to VEGF alone” value was 56.9 % of VEGF-alone control.
